Laboratory results reported in patent CN105646713A (UNIV CHINA PHARMA, dated 2016).

Biological target: T1, CD24多肽 (human, UniProt P25063 27-59)
T1 construct: domain: CD24核心区; also called CD24核心区多肽; 抗原肽CD24
T1 peptide (looked up): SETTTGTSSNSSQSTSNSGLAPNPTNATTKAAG
Experiment: Competitive ELISA by the Friguet method: 10 pM antibody preincubated overnight with 0-6.25e-10 M antigen, then free antibody captured on coated CD24 peptide; KD from linear regression

B1: 单克隆抗体E4 (antibody, V domains shown)
VH: QVKLEESGGGLVQPGGSLKISCAASGPDFSRYWMSWVRQAPGKGLEWIGEINPDYSTINYTPSLRDKFIISRDNAKNTLYLQMSKVRYEDTSLYYCVRQGDYWGQGTSVTVSS
VL: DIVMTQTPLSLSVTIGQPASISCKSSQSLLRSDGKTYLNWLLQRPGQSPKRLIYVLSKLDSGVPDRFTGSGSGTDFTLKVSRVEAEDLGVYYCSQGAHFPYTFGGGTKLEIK
notes: also called E4杂交瘤细胞株抗体
Kd: 0.84 nM
